Consider five molecules from paper doi:10.1101/2020.09.01.276469 (bioRxiv, 2020).

The labels stand for the following.
T1: TPX2 amino acids 1-260 (Xenopus laevis, UniProt Q6NUF4 1-260)
T1 sequence (looked up): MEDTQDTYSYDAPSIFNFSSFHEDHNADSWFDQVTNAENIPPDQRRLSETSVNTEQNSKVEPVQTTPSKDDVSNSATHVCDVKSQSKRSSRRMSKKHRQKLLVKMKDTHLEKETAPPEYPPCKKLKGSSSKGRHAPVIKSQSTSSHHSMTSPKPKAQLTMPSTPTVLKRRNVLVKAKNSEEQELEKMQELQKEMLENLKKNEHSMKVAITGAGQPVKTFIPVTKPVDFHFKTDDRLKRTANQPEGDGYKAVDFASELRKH

T2: TPX2 amino acids 1-178 (Xenopus laevis, UniProt Q6NUF4 1-178)
T2 sequence (looked up): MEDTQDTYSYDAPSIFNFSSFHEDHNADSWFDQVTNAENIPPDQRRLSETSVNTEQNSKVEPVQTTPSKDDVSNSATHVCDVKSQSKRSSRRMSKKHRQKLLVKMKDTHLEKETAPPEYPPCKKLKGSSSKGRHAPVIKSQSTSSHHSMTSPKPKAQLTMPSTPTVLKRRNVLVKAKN

B1: importin-αΔIBB (importin-α without the importin-β binding domain) (domain or fragment)
chain: not shown
B2: importin-α/β heterodimer (GST-importin-α bound to importin-β) (complex)
chain 1: not shown
chain 2: MELVTILEKTVSPDRNELEAAQKFLEQAAVENLPTFVVELSKVLANPANSQVARVAAGLQIKNPLTSRDPDVKAQYQQRWLAIDASARGEIKTYVLRTLGTESYRPSSASQCVAGIACAEITVNQWPQLIPQLVANVTDPNSTERMKESTLEAIGYICQDIDPEQLQHKSNEILTAIIQGMRKEEPSNNVRLAATNALLNSLEFTKANFDKESERHYIMQVVCEATQCPDTRVRVAALQNLVKIMSLYYQYMETYMGPALFAITVEAMKNEIDEVALQGIEFWSNVCDEEMDLAIEASEAAEQGRPPEHTSKFYAKGALQYLVPILTQTLTKQDENDDDDDWNPCKAAGVCLMLLATCCEDDIVPHVLPFIKEHIKNPDWRYRDAAVMAFGCILEGPESCQLKPLVIQAMPTLIELMKDPSVVVRDTTAWTVGRICELLPEAAINDVYLAPLLQCLIEGLGAEPRVASNVCWAFSSLAEAAYEAADVADDQEEPSSYCLSSSFEVIVQKLLETTDRPDGHQNNLRSAAYEALMEIVKNSAKDCYPAVQKTTLVIMERLQQVLQVESHIQSTSDRIQFNDLQSLLCATLQNVLRKVQHQDALQISDVVMASLLRMFQSTAGSGGVQEDALMAVSTLVEVLGAEFLKYMEAFKPFLTIGLKNYAEYQVCLAAVGLVGDLCRALQSNILPFCDEMMQFLLENLGNENVHRSVKPQILSVFGDVALAIGGEFKKYLDVVLNTLQQASQAQVDKSDYDMVDYLNELREGCIEAYTGIIQGLKGDQENVHPDVMLVQPRVEFILSFIDHIAGDEDHTDSVVACGAGLIGDLCTAFGKDVLKLVEARPMIHELLTEGRRSKTNKTKTLATWATKELRKLKNQA
B3: importin-β (natural protein, Xenopus laevis, UniProt P52297 1-876, looked up)
chain: B2 chain 2
B4: TPX2 N-terminus (a.a. 1-480) (domain or fragment, Xenopus laevis, UniProt Q6NUF4 1-480, looked up)
chain: MEDTQDTYSYDAPSIFNFSSFHEDHNADSWFDQVTNAENIPPDQRRLSETSVNTEQNSKVEPVQTTPSKDDVSNSATHVCDVKSQSKRSSRRMSKKHRQKLLVKMKDTHLEKETAPPEYPPCKKLKGSSSKGRHAPVIKSQSTSSHHSMTSPKPKAQLTMPSTPTVLKRRNVLVKAKNSEEQELEKMQELQKEMLENLKKNEHSMKVAITGAGQPVKTFIPVTKPVDFHFKTDDRLKRTANQPEGDGYKAVDFASELRKHPPSPVQVTKGGHTVPKPFNLSKGKRKHEEASDYVSTAEQVIAFYKRTPARYHLRSRQREMEGPSPVKMIKTKLTNPKTPLLQTKGRHRPVTCKSAAELEAEELEMINQYKFKAQELDTRILEGGPVLLKKPLVKEPTKAIGFDLEIEKRIQQREKKEEIEEETFTFHSRPCPSKMLTDVVGVPLKKLLPVTVPQSPAFALKNRVRIPAQEEKQEEMVPVI
B5: Targeting Protein for XKlp2 (TPX2), full length, GFP-tagged (natural protein, Xenopus laevis, UniProt Q6NUF4 1-716, looked up)
chain: MEDTQDTYSYDAPSIFNFSSFHEDHNADSWFDQVTNAENIPPDQRRLSETSVNTEQNSKVEPVQTTPSKDDVSNSATHVCDVKSQSKRSSRRMSKKHRQKLLVKMKDTHLEKETAPPEYPPCKKLKGSSSKGRHAPVIKSQSTSSHHSMTSPKPKAQLTMPSTPTVLKRRNVLVKAKNSEEQELEKMQELQKEMLENLKKNEHSMKVAITGAGQPVKTFIPVTKPVDFHFKTDDRLKRTANQPEGDGYKAVDFASELRKHPPSPVQVTKGGHTVPKPFNLSKGKRKHEEASDYVSTAEQVIAFYKRTPARYHLRSRQREMEGPSPVKMIKTKLTNPKTPLLQTKGRHRPVTCKSAAELEAEELEMINQYKFKAQELDTRILEGGPVLLKKPLVKEPTKAIGFDLEIEKRIQQREKKEEIEEETFTFHSRPCPSKMLTDVVGVPLKKLLPVTVPQSPAFALKNRVRIPAQEEKQEEMVPVIKATRMPHYGVPFKPKLVEQRQVDVCPFSFCDRDKERQLQKEKRLDELRKDEVPKFKAQPLPQFDNIRLPEKKVKMPTQQEPFDLEIEKRGASKLQRWQQQIQEELKQQKEMVVFKARPNTVVHQEPFVPKKENRSLTESLSGSIVQEGFELATAKRAKERQEFDKCLAETEAQKSLLEEEIRKRREEEEKEEISQLRQELVHKAKPIRKYRAVEVKASDVPLTVPRSPNFSDRFKC

The target in one series is T1, TPX2 amino acids 1-260. Put plainly: BLI.
The target in series [1] is B5. Put plainly: BLI. For orientation: BLI is a label-free optical method that tracks binding on a fibre tip over time.
The next series deals with T2, TPX2 amino acids 1-178. Nature of the series: BLI.
Series [2] concerns the target B5. Nature of the series: SEC-MALS. Background: Size exclusion chromatography separates by hydrodynamic size, large species first.
The series “SEC-MALS” deals with the molecule itself. Put plainly: SEC-MALS.
Series [3] deals with GST-importin-α (full length) (Xenopus laevis). Put plainly: SEC-MALS.
The target of the series “importin-β” is B3. Put plainly: BLI.
Series [4] addresses B2. Put plainly: BLI.

Consider B1, for which the values for the Kd (in the series with TPX2 amino acids 1-260; in series [1]; with TPX2 amino acids 1-178) were 20 ± 4 nM, 61 ± 10 nM and 15 ± 3 nM, respectively. The “stoichiometry N” value in series [2] is no less than 1; in the series “SEC-MALS”, 2.

Take B2: the “stoichiometry N” value in series [2] was 1.

In the case of B3, the “stoichiometry N” value in series [3] is 1.

In the case of B4, the Kd with importin-β was 512 ± 70 nM.

In the case of B5, the equilibrium dissociation constant (Kd) was determined as 75 ± 15 nM in series [4] and 530 ± 75 nM with importin-β.

Usually Kd stands for the constant that tells how readily two partners part at equilibrium. Read a high Kd as lower affinity. In general, stoichiometry N refers to the number of molecules, sites or subunits per partner or assembly.
